# Data reported in patent publication US20130296252A1 (University of Texas, published 2013).
# Bridge positions count the residues as written; N and C are the ends. Ends that are not written are not given here.
# T1: human MUC18 on human melanoma cell lines (human, UniProt P43121 24-646)
# T1 construct: whole, on cells; also called MCAM; CD146
# T1 sequence (looked up): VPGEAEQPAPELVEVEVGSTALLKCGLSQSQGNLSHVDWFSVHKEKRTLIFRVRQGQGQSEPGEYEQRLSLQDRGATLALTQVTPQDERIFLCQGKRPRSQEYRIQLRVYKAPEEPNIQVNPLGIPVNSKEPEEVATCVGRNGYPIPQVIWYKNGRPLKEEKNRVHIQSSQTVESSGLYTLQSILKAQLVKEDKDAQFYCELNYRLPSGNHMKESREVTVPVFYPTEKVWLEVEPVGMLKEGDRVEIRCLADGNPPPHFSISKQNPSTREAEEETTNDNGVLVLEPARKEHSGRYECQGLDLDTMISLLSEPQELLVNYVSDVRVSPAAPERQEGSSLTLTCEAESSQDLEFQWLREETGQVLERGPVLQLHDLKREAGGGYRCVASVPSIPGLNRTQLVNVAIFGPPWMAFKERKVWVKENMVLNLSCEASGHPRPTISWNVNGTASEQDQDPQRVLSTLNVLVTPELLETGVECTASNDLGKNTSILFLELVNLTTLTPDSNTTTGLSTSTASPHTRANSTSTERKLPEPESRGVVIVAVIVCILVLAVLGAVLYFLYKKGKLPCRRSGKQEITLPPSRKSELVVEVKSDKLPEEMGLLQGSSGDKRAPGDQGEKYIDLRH
# B1: mouse MUC18 (melanoma cell adhesion molecule) (receptor, UniProt Q8R2Y2 24-648, looked up)
# chain: VPGEEKQPVPTPDLVEAEVGSTALLKCGPSRASGNFSQVDWFLIHKERQILIFRVHQGKGQREPGEYEHRLSLQDSVATLALSHVTPHDERMFLCKSKRPRLQDHYVELQVFKAPEEPTIQANVVGIHVDRQELREVATCVGRNGYPIPQVLWYKNSLPLQEEENRVHIQSSQIVESSGLYTLKSVLSARLVKEDKDAQFYCELSYRLPSGNHMKESKEVTVPVFYPAEKVWVEVEPVGLLKEGDHVTIRCLTDGNPQPHFTINKKDPSTGEMEEESTDENGLLSLEPAEKHHSGLYQCQSLDLETTITLSSDPLELLVNYVSDVQVNPTAPEVQEGESLTLTCEAESNQDLEFEWLRDKTGQLLGKGPVLQLNNVRREAGGRYLCMASVPRVPGLNRTQLVSVGIFGSPWMALKERKVWVQENAVLNLSCEASGHPQPTISWNVNGSATEWNPDPQTVVSTLNVLVTPELLETGAECTASNSLGSNTTTIVLKLVTLTTLIPDSSQTTGLSTLTVSPHTRANSTSTEKKLPQPESKGVVIVAVIVCTLVLAVLGAALYFFYKKGKLPCGRSGKQEITLPPTRKSEFVVEVKSDKLPEEMALLQGSNGDKRAPGDQGEKYIDLRH
# notes: whole, on cells; Present on B16 melanoma cells before and after co-culture with B-1 lymphocytes; In the immunocapture assay it was captured from cell membrane extracts by anti-MUC18 antibody; In Western blot and co-IP it came from cell membrane extracts; also called MCAM; native mouse MUC18
# Assays:
# [1] = biological target: the molecule itself; experiment: conclusion drawn from phage binding, immunocapture, antibody inhibition and shRNA experiments
# [2] = biological target: B1; experiment: phage binding (relative TU) to B16 melanoma cells post co-culture with B-1 lymphocytes
# [3] = biological target: B1; experiment: phage binding (relative TU) to B16 melanoma cells post versus pre co-culture with B-1 lymphocytes
# [4] = biological target: B1; experiment: phage binding to B16 melanoma cells post versus pre co-culture with B-1 lymphocytes
# [5] = biological target: T1, human MUC18 on human melanoma cell lines; experiment: phage binding to a panel of 8 human melanoma cell lines
# [6] = biological target: B1; experiment: alanine-scanning phage binding to melanoma cells
binder,measurement,setting,value
B1,binding result,[1],binds
"CLFMRLAWC (disulfide 1-9 (inferred); also: displayed on phage, also called phage clone displaying the peptide motif Arg-Met-Phe-Leu) [CLFMRLAWC-phage (phage displaying the cyclic peptide CLFMRLAWC)]",fold increase in phage binding relative to control insertless phage,[2],~20 fold
same,fold increase in phage binding relative to melanoma cells without co-culture with B-1 lymphocytes,[3],~12 fold
HDERMFLCKS (also called MUC18-derived phage; MUC18-derived (H111-S120) phage),fold increase in phage binding relative to baseline binding to melanoma cells pre co-culture with B-1 lymphocytes,[4],2.5 fold
same,binding result,[5],binds
HDEAMFLCKS (Numbering counts on mouse MUC18) [H111-S120 phage with Arg114 mutated (alanine scanning)],binding result,[6],no binding
HDERMFLAKS (Numbering counts on mouse MUC18) [H111-S120 phage with Cys118 mutated (alanine scanning)],binding result,[6],no binding
HDERMFLCKA (Numbering counts on mouse MUC18) [H111-S120 phage with Ser120 mutated (alanine scanning)],binding result,[6],no binding
HDERMFLCAS (Numbering counts on mouse MUC18) [H111-S120 phage with Lys119 mutated (alanine scanning)],binding result,[6],no binding
